Target: the molecule itself
Assay: SEC; BioSep-SEC-S3000 column (5-700 kDa), room temperature, 0.5 ml/min, 100 mM potassium phosphate pH 7.4; 20 µl sample at ~2 mg/ml total protein; monitored at 410 nm; sizes estimated from the Bio-Rad gel filtration standard calibration curve

B1: CYP2C9 wild-type, N-terminally truncated, His-tagged recombinant protein (enzyme, human, UniProt P11712 29-490, looked up)
chain: LPPGPTPLPVIGNILQIGIKDISKSLTNLSKVYGPVFTLYFGLKPIVVLHGYEAVKEALIDLGEEFSGRGIFPLAERANRGFGIVFSNGKKWKEIRRFSLMTLRNFGMGKRSIEDRVQEEARCLVEELRKTKASPCDPTFILGCAPCNVICSIIFHKRFDYKDQQFLNLMEKLNENIKILSSPWIQICNNFSPIIDYFPGTHNKLLKNVAFMKSYILEKVKEHQESMDMNNPQDFIDCFLMKMEKEKHNQPSEFTIESLENTAVDLFGAGTETTSTTLRYALLLLLKHPEVTAKVQEEIERVIGRNRSPCMQDRSHMPYTDAVVHEVQRYIDLLPTSLPHAVTCDIKFRNYLIPKGTTILISLTSVLHDNKEFPNPEMFDPHHFLDEGGNFKKSKYFMPFSAGKRICVGEALAGMELFLFLTSILQNFNLKSLVDPKNLDTTPVVNGFASVPPFYQLCFIPV
modifications: biotin on the BCCP tag (50 µM biotin added to facilitate biotinylation)
notes: cytochrome P450 2C9, human; Vector pBJW102.2 (pQE-80L with BCCP and a glycine-serine linker 3' to the His-6 tag); also called CYP2C9 WT; source: E. coli DH5α, purified (Protino Ni-TED His-tag purification)
stoichiometry N: ~8 subunits

— paper PMC6082832, “Effects of polymorphic variation on the thermostability of heterogenous populations of CYP3A4 and CYP2C9 enzymes in solution” (Scientific Reports, 2018)
